Experimental findings from US11666658B2, “Rifamycin analogs and antibody-drug conjugates thereof” (Regeneron Pharmaceuticals, Inc., priority 2018, dated 2023) are described below.

Assay [1] concerns the target T1, endogenously expressed human MSR1 on PMA-treated THP-1 cells (Homo sapiens, UniProt P21757).
T1 construct: endogenously expressed human MSR1; endogenous in cells; host or cells: THP-1 cells treated with 200 nM PMA
T1 sequence (P21757 1-451): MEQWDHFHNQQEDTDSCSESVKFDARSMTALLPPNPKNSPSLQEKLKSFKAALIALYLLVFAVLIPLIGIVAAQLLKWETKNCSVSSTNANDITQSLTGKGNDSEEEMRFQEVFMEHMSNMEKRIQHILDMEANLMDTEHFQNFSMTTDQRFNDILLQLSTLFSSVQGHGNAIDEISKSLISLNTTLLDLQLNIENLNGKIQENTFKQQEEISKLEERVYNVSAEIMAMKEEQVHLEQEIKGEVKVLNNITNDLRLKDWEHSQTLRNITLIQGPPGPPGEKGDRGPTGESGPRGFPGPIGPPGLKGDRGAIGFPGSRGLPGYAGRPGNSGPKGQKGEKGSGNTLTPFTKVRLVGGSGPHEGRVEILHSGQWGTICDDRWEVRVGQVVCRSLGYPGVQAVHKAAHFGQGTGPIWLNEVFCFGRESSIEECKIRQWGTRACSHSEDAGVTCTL
Kind of assay: Electrochemiluminescence (ECL) antibody binding assay on cells. On the procedure:
The ability of anti-MSR1 monoclonal antibodies to bind to human or monkey MSR1 expressing cells was determined using electrochemiluminescence (ECL) based detection.
Two cell lines overexpressing either human or monkey MSR1 were generated. To generate the human MSR1 overexpressing cell line, human embryonic kidney (HEK) 293 cells were engineered by transduction with hygromycin resistant lentiviral vector encoding full length human MSR1 (hMSR1, amino acids M1-L451 of accession number NP_619729.1) with a C-terminal Myc tag. The resulting cell line is referred to as HEK293.Myc.hMSR1. Similarly, to generate the monkey MSR1 overexpressing cell line, HEK293 cells were engineered by transfection with the geneticin resistant expression plasmid encoding full length monkey MSR1 (Macaca fascicularis, mfMSR1, amino acids M1-L451 of accession number XP_005562705.1). The resulting cell line is referred to as HEK293.mfMSR1 cells. To measure the ability of antibodies to bind to endogenously expressed human MSR1, THP-1 human monocytic cells were treated with 200 nM of phorbol 12-myristate 13-acetate (PMA; Sigma, Cat #P8139) for 72 hours to induce high MSR1 expression prior to antibody binding.
Luminescence intensity, measured in relative light units (RLU), was recorded to indicate the binding intensity of each antibody at the range of concentrations.

The subject of assay [2] is MSR1 negative B16F10.9 cells. In words: Flow cytometry cell surface binding, MSR1 negative cells. More on the design: species or system mouse. On the procedure: Relative cell surface binding of the anti-MSR1 antibodies to mouse MSR1 expressing cells was determined by flow cytometry using MSR1 positive RAW264.7 cells (ATCC, Catalog #TIB-71) and MSR1 negative B16F10.9 cells (Lin et al. 1998. PNAS 95:8829-8834). For the assay, cells were plated in PBS without calcium and magnesium (VWR Cat #45000-446) and 2% FBS (Saradigm Cat #1500-500) (Staining Buffer) in 96 well V-bottom plates (Axygen Scientific, Cat #P-96-450-V-C-S). To block binding to Fc receptors, RAW264.7 cells were incubated for 30 minutes at 4° C. with 500 μg/mL mouse IgG (Jackson ImmunoResearch, Cat #015-000-003) diluted in staining buffer, while B16F10.9 cells remained in staining buffer. Following Fc receptor blocking, 10 μg/mL of anti-MSR1 antibodies or an isotype control antibody were added to the cells and were subsequently incubated for 30 minutes on ice. For a positive control, a commercial anti-mouse MSR1 (Sino Biological, Cat #50129-R004) antibody was used, while a rabbit IgG antibody (Thermo Scientific, Cat #26102) was used as a negative control. […] Cells were subsequently washed and fixed using a 50% solution of Cytofix (BD Biosciences, Cat #554655) diluted in PBS. […] The signal to noise (S/N) was determined by calculating the ratio of the anti-MSR1 antibodies or the control antibodies MFI to the unstained sample MFI (Table 16).

In assay [3] the test system is S. aureus MRSA strain NRS384. In words: S. aureus IV disseminated infection mouse model (humanized MSR1 mice), kidney burden. In kind it is in vivo, Staphylococcus aureus. The note with it: with vancomycin; for # of mice with S. aureus below the limit of detection: limit of detection = 250 cfu. As for the experimental part: To test the efficacy of an anti-MSR1 Ab-antibiotic ncADC according to the disclosure in vivo, an intravenous disseminated infection model was utilized. S. aureus MRSA strain NRS384 was grown overnight in trypic soy broth (TSB) and sub-cultured to mid-logarithmic phase. Bacteria were then washed twice with PBS and resuspended in PBS at a concentration of 1.2×10^8 cfu/mL. […] From one to three days post infection, mice were treated with 110 mg/kg vancomycin subcutaneously twice daily wherein indicated. […] Mice were monitored for weight loss and body conditioning score throughout the infection. At four days post infection, mice were euthanized and the S. aureus kidney burden was quantified by tissue homogenization followed by enumeration of colony forming units through serial dilution in PBS and plating onto trypicase soy agar plates.

[4] abbreviates: mAb or conjugate dose 0.1 mg/kg.

B1: H1H21234N-N297Q: "An anti-MSR1 antibody H1H21234N containing a N297Q mutation, which eliminates N-linked glycosylation of the Fc at this site" (antibody, V domains shown)
VH: QVQLQESGPGLVKPSETLSLTCTVTGGSISRNYWSWIRQPPGKGLEWIGYIYYSGSIDYNPSLKSRVTISVDTSKNQFSLKLSSMTAADTAVYYCARDRWNWKYGMDVWGQGTTVIVSS
VL: EIVLTQSPGTLSLSPGERATLSCRASQTVRNNYLAWYHQKPGQAPRLLIYGASSRATGIPDRFSGSGSGTDFTLTISRLEPEDFTVYYCHQYGNSPWTFGQGTKMEIKR
As for B1, the “Ratio of 11 nM Antibody Binding Signal (RLU) to isotype control, PMA-treated THP-1” value in assay [1] is given as 25. The “B16F10.9 MFI” value in assay [2] (10 μg/mL antibody, flow cytometry) worked out at 3499. The “B16F10.9 S/N” value in assay [2] (ratio of antibody MFI to unstained sample MFI) was found to be 1. Besides, in assay [3] (setting [4]), the Average cfu/kidney pair came out at 2.43E+05 cfu/kidney pair and the “# of mice with S. aureus below the limit of detection” value was 0/6. Besides, in assay [3] (mAb or conjugate dose 1 mg/kg), the Average cfu/kidney pair worked out at 1.55E+05 cfu/kidney pair and the “# of mice with S. aureus below the limit of detection” value is reported as 4/8.
